One may read the IC50 as the concentration needed to halve the response being measured. For orientation: EC50 means the concentration needed to bring the measured effect to its halfway point. High values mean weaker potency, low ones greater potency. Broadly, the EC50 (read off the curve) is the concentration that produces a half-maximal response. Higher therefore signals lower potency in that assay.

The text below walks through data of patent US20090137002A1 (published 2009).

Sequences and labels used below:
T1: myc-tagged human EphB4 on transfected CHO cells (human, UniProt P54760 16-987)
T1 construct: whole, on cells; also called CHO-EphB4; CHO-hEphB4; not shown: myc tag
T1 sequence (looked up): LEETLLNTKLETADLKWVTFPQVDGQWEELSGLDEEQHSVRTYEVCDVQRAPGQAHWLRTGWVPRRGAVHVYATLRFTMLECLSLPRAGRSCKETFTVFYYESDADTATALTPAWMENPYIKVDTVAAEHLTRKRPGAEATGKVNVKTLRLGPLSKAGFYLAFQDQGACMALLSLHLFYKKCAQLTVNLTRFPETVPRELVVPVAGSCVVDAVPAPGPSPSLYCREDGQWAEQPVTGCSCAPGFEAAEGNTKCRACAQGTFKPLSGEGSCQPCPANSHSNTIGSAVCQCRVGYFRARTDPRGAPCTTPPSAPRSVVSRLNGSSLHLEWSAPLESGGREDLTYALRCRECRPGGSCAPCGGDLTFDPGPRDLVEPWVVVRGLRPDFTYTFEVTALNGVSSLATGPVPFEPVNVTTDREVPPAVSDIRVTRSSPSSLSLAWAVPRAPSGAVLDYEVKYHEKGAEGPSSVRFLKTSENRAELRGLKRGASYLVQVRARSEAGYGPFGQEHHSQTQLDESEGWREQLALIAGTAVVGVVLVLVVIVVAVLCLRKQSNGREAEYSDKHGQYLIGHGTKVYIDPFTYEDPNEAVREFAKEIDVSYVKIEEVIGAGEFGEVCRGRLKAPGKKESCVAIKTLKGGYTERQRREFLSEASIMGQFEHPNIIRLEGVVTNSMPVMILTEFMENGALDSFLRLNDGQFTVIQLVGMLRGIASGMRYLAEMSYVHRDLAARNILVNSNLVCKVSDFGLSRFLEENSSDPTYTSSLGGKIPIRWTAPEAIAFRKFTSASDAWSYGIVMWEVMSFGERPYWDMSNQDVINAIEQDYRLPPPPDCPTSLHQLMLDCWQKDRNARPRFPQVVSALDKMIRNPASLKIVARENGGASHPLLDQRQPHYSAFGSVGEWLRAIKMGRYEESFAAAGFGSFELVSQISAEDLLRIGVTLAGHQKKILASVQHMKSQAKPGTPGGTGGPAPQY

T2: recombinant mouse EphB3-Fc fusion protein (mouse, UniProt P54754 30-537, limits assumed)
T2 construct: also called mEphB3; not shown: Fc part, not described
T2 sequence (looked up): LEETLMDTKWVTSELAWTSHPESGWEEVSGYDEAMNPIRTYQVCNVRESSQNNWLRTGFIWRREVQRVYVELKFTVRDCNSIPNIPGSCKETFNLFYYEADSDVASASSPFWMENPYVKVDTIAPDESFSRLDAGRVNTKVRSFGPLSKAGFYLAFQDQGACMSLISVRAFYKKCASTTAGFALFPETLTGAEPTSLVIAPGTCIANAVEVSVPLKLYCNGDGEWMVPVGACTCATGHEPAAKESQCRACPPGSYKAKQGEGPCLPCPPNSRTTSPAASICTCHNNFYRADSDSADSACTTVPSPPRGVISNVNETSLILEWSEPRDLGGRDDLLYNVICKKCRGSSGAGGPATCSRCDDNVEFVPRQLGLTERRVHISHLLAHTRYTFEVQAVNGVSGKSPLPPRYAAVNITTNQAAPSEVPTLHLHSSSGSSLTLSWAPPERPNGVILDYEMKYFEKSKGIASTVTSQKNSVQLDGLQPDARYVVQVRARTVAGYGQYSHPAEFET

B1: MOR07728 IgG4-Pro (antibody, V domains shown)
VH: QVELVQSGAEVKKPGSSVKVSCKASGGTFSTYAISWVRQAPGQGLEWMGRIIPIFGTANYAQKFQGRVTITADESTSTAYMELSSLRSEDTAVYYCARSSYTILTTYYNYNAMDNWGQGTLVTVSS
VL: DIQMTQSPSSLSASVGDRVTITCRASQNINNFLNWYQQKPGKAPKLLIYGSSILQSGVPSRFSGSGSGTDFTLTISSLQPEDFATYYCQQNDFYSPSTFGQGTKVEIKR
notes: Fab MOR07728 converted into human IgG4-Pro format
B2: MOR07956 IgG4-Pro (antibody, V domains shown)
VH: B1 VH with R50K, T57D, N59D
VL: B1 VL with N91Y, S95L, P96S, S97G
notes: Fab MOR07956 converted into human IgG4-Pro format
B3: MOR07953 IgG4-Pro (antibody, V domains shown)
VH: QVELVESGGGLVQPGGSLRLSCAASGFTFNNAWMSWVRQAPGKGLEWVSAINAKGQFTSYADSVKGRFTISRDNSKNTLYLQMNSLRAEDTAVYYCARKGMSFYNNKYAKSMFDLWGQGTLVTVSS
VL: DIELTQPPSVSVAPGQTARISCSGDNLGKKYVHWYQQKPGQAPVLVIYYDSKRPSGIPERFSGSNSGNTATLTISGTQAEDEADYYCQTWTLSHMGNVFGGGTKLTVLG
notes: Fab MOR07953 converted into human IgG4-Pro format
B4: MOR07724 IgG4-Pro (antibody, V domains shown)
VH: B3 VH with E3Q, A50G, N52S, K54D, Q56V, F57H, T58K, S59F
VL: B3 VL with Q88S, T89A, L92T, S93T, H94M, G96H, N97I
notes: Fab MOR07724 converted into human IgG4-Pro format
B5: MOR07721 IgG4-Pro (antibody, V domains shown)
VH: QVQLVESGGGLVQPGGSLRLSCAASGFTFNNAWMSWVRQAPGKGLEWVSTIEAKMPNGATFYAAPVKGRFTISRDNSKNTLYLQMNSLRAEDTAVYYCARKGMSFYNNKYAKSMFDLWGQGTLVTVSS
VL: B3 VL with Q88S, T89A, L92T, S93T, H94M, G96H, N97I
notes: Fab MOR07721 converted into human IgG4-Pro format
B6: MOR07955 IgG4-Pro (antibody, V domains shown)
VH: B1 VH with R50K, T57D, N59D
VL: DIQMTQSPSSLSASVGDRVTITCRASQNINNFLNWYQQKPGKAPKLLIYGSSILQSGVPSRFSGSGSGTDFTLTISSLQPEDFATYYCSQDHFYPPSGTFGQGTKVEIKR
notes: Fab MOR07955 converted into human IgG4-Pro format
B7: MOR07957 IgG4-Pro (antibody, V domains shown)
VH: B1 VH with R50Q, T57D, N59D
VL: B1 VL
notes: Fab MOR07957 converted into human IgG4-Pro format
B8: mEphrinB2-Fc fusion protein (Fc fusion, mouse, UniProt P52800 27-227, looked up)
chain: ISRSIVLEPIYWNSSNSKFLPGQGLVLYPQIGDKLDIICPKVDSKTVGQYEYYKVYMVDKDQADRCTIKKENTPLLNCARPDQDVKFTIKFQEFSPNLWGLEFQKNKDYYIISTSNGSLEGLDNQEGGVCQTRAMKILMKVGQDASSAGSARNHGPTRRPELEAGTNGRSSTTSPFVKPNPGSSTDGNSAGHSGNNLLGSE
notes: not shown: Fc part, not described

Numbering of substitutions follows the chain as printed.

The target of the first assay is T1, myc-tagged human EphB4 on transfected …. Nature of the assay: FACS, IgG4-Pro inhibition of murine ephrin-B2 binding to CHO-EphB4 cells; n = 1. The protocol:
(§1) C50 values (i.e. IgG4-Pro inhibition of ligand binding) were determined in FACS. […] Receptor-bound ephrin-B2 was detected via biotinylated anti-mouse ephrin-B2 antibody (R&D Systems) and streptavidin-PE. The IC50 values of the IgGs, determined in two independent experiments, are given in Table 11 and are compared to the IC50 values of the corresponding Fab. […] Again, as already seen for the Fab, the IC50 values of the MOR07310 pool were slightly better than those of the MOR03641 pool.
Background: In flow cytometry, cells or beads pass a laser one at a time.
Molecule B1 registered an IC50 of 3.26 nM. This counts as single-digit nanomolar.

As to B2, the IC50 is 0.43 nM.

The next assay shares this target. Nature of the assay: FACS, IgG4-Pro inhibition of murine ephrin-B2 binding to CHO-EphB4 cells. On the procedure: as §1
B3: the IC50 came out at 0.23 nM. That is a sub-nanomolar value.

For B4, the IC50 turned out to be 0.1 nM.

As to B5, the IC50 stood at 0.16 nM and the “fold improvement of IC50 compared to the corresponding Fab” value stood at 6 fold.

In the case of B6, the IC50 was found to be 0.31 nM.

B7 yielded an IC50 of 0.79 nM.

A further assay shares this target. Nature of the assay: FACS titration of IgG4-Pro on CHO-EphB4 cells. On the procedure:
For the determination of EC50 values, the 12 final IgGs were analyzed on CHO-EphB4 cells in FACS. The EC50 values of the IgGs, determined in two independent experiments, are given in Table 11 and are compared to the EC50 values of the corresponding Fab. […] Again, as already seen for the Fab, the EC50 values of the MOR07310 pool were slightly better than those of the MOR03641 pool.
With B3, the EC50 worked out at 0.17 nM and the “EC50 (read off the curve)” value is around 0.1 nM.

B4 displayed an EC50 of 0.18 nM.

B5: a half-maximal effect (EC50) was put at 0.12 nM.

Turning to B1, the EC50 is 1.58 nM and the “EC50 (read off the curve)” value is around 2 nM.

B6: the EC50 came to 0.51 nM.

Turning to B2, the 50% effective concentration (EC50) came out at 0.34 nM.

Consider B7, for which the EC50 was found to be 0.36 nM.

The target is the same in a further assay. Nature of the assay: FACS competition on CHO-EphB4 cells, competitor murine ephrin-B2. The protocol:
as §1
As to B3, the “IC50 (read off the curve)” value is around 0.3 nM.

Consider B4, for which the “IC50 (read off the curve)” value is around 0.1 nM.

On to B5, for which the “IC50 (read off the curve)” value was around 0.1 nM.

In the case of B1, the “IC50 (read off the curve)” value was around 3 nM.

The next assay has as its target T2, recombinant mouse EphB3-Fc fusion …. Nature of the assay: ELISA: mEphrinB2-Fc (25 ng/ml) on coated mEphB3-Fc, with or without 100 µg/mL anti-EphB4 Fab. On the procedure: Specificity for EphB4 in ELISA: Wells of a 96-well maxisorp-plate were coated overnight with 100 μL recombinant human EphB4 (hEphB4)-, recombinant mouse EphB3 (mEphB3)- or recombinant mouse EphA4 (mEphA4)-Fc fusion protein at a final concentration of 2.5 μg/mL in PBS. Anti-EphB4 Fab fragments (purified, MH-tagged) were added (100 μL/well, 100 μg/mL final concentration in chemiblock) to respective wells and incubated for 1 h at RT. Then 100 μl mEphrinB2-Fc fusion protein either spiked with the respective anti-EphB4 Fab or with PBS was added (25 ng/ml mEphrinB2+/−100 μg/ml Fab diluted in chemiblock) and incubated for max. 20 min at RT. The amount of bound EphrinB2 was detected using biotinylated goat anti-EphrinB2 antibody (0.05 μg/ml final concentration diluted in chemiblock, 1 h at RT), AP-conjugated streptavidin and AttoPhos substrate. Fluorescence was measured (RFU) at 535 nm (430 nm excitation).
On the technique in general: An ELISA detects its analyte on a solid surface through an enzyme-linked reagent.
With B8, the binding result is on record as “binds”.
